This data set deals with the molecule itself. In words: SEC-MALS. A general note: SEC sorts molecules by how far they enter the pores of the column.

This note sets out measurements from paper PMC10726971 (Nature chemical biology, 2023).

The term stoichiometry N denotes a count of units in the complex or per binding partner.

B1: human FUT9 soluble catalytic domain (residues 39-359) (enzyme, UniProt Q9Y231 39-359, looked up)
chain: SPMESASSVLKMKNFFSTKTDYFNETTILVWVWPFGQTFDLTSCQAMFNIQGCHLTTDRSLYNKSHAVLIHHRDISWDLTNLPQQARPPFQKWIWMNLESPTHTPQKSGIEHLFNLTLTYRRDSDIQVPYGFLTVSTNPFVFEVPSKEKLVCWVVSNWNPEHARVKYYNELSKSIEIHTYGQAFGEYVNDKNLIPTISTCKFYLSFENSIHKDYITEKLYNAFLAGSVPVVLGPSRENYENYIPADSFIHVEDYNSPSELAKYLKEVDKNNKLYLSYFNWRKDFTVNLPRFWESHACLACDHVKRHQEYKSVGNLEKWFWN
modifications: N-glycans cleaved with EndoF1; a tetrasaccharide (Manα1,3-Manβ1,4-GlcNAcβ1,4-GlcNAcβ-) is left on Asn153
Regarding B1, the “stoichiometry N” value was found to be 2.
